From patent US20210054353, “NOVEL RNA-PROGRAMMABLE ENDONUCLEASE SYSTEMS AND USES THEREOF” (CRISPR THERAPEUTICS AG, published 2021)

Legend:
[1] = target: T1, F8 sRGN (synthetic (Staphylococcus Cas9 chimera)); assay: FP; cleavage; 5 mM MgCl2, 37 C
T1 chain: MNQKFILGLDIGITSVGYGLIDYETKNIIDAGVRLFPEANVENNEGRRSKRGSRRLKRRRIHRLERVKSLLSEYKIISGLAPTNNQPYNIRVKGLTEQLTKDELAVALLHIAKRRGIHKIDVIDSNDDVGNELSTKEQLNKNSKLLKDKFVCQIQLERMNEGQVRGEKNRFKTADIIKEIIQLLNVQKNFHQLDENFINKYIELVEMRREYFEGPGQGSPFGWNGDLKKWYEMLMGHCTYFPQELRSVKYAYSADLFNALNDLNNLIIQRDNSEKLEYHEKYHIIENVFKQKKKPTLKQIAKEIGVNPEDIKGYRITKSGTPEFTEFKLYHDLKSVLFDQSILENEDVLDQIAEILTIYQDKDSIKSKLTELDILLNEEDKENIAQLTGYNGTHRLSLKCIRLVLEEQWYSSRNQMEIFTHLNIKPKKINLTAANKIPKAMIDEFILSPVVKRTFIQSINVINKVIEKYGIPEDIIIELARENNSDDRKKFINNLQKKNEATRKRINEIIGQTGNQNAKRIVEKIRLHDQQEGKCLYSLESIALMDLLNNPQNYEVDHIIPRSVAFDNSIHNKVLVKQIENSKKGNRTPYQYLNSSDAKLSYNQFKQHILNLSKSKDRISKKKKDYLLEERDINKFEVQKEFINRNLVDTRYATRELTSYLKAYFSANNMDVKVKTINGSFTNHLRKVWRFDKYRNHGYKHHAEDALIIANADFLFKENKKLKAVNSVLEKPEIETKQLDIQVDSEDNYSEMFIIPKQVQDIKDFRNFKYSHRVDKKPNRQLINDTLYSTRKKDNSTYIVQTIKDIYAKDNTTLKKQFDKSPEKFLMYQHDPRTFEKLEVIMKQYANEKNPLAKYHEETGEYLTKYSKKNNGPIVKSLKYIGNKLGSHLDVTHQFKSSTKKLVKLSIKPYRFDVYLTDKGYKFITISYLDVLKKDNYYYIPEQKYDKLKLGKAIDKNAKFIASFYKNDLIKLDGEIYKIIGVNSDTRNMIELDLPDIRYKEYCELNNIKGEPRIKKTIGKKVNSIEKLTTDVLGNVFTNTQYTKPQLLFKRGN
Protocol: (§1) Oligonucleotide duplexes were prepared in 10 mM Tris (pH 7.8) 50 mM NaCl as 10 μM solutions (from 100 μM stocks) and annealed at 95° C. for 5 minutes then slowly cooled down in thermo cycler (6° C. per minute). The stocks were subsequently diluted in 10 mM Tris (pH 7.8), 50 mM NaCl, and 0.05% Pluronic. 20 μl of each oligonucleotide (20 nM) was immobilized on streptavidin coated plates, washed twice after 10 minutes and then incubated with a 20 μL sample for a kinetics of 60 minutes (excitation wavelength: 635 nm; emission wavelength: 670 nm). Prior to the cleavage the reaction RNP was formed. RNP was assembled by mixing 12.03 μl of the respective sRGN protein (1.21 μg/μl) in 3200 μl 1×PBS+5 mM MgCl₂ with and without sgRNA (SEQ ID NO: 128; 60 nM final concentration), RNPs were incubated 5 min at 37° C. prior to the reaction. 20 μl RNP was added to each well and the polarization was measured for 60 minutes at 37° C.
(§2) The cleavage kinetics were analyzed by calculating the initial slope of the oligonucleotide cleavage reaction. The slopes were calculated for each of the 61 substrates and normalized to the value of the on-target substrate (defined as 1). The normalized cleavage values for all 60 off-target substrates where then grouped according to their position. […]

[2] = target: T2, E2 sRGN (synthetic (Staphylococcus Cas9 chimera)); assay: FP; cleavage; specificity profile comparable to SluCas9
T2 chain: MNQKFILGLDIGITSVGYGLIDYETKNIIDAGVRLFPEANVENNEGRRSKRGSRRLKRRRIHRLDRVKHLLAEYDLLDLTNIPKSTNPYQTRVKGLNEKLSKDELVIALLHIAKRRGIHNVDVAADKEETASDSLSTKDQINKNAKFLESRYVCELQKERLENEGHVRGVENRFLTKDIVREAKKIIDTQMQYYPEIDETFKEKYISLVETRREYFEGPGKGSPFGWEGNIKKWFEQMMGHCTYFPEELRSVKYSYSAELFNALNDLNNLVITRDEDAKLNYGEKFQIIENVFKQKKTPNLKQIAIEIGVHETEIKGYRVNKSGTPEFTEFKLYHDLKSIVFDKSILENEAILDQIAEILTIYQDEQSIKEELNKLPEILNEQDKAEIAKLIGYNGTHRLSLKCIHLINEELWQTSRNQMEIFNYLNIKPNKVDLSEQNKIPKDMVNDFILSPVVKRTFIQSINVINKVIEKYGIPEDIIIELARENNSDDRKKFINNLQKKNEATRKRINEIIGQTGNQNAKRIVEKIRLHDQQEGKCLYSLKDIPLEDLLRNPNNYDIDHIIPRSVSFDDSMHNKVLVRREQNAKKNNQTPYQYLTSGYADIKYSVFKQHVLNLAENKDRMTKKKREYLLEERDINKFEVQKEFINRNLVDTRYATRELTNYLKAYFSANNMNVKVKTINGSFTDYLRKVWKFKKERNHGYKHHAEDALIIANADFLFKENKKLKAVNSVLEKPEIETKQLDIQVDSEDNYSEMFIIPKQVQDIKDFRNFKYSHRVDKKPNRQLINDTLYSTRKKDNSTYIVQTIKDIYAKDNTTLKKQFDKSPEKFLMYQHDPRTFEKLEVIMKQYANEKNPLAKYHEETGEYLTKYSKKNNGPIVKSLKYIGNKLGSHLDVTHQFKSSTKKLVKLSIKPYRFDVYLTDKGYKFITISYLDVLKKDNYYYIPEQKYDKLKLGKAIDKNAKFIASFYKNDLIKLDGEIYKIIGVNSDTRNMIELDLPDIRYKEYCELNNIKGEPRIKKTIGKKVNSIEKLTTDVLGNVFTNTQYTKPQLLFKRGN
Protocol: as §1, §2

[3] = target: T3, Gib11Spa-3 sRGN (synthetic (Staphylococcus Cas9 chimera)); assay: FP; cleavage; 5 mM MgCl2, 37 C; PAM GGGG on substrate
T3 chain: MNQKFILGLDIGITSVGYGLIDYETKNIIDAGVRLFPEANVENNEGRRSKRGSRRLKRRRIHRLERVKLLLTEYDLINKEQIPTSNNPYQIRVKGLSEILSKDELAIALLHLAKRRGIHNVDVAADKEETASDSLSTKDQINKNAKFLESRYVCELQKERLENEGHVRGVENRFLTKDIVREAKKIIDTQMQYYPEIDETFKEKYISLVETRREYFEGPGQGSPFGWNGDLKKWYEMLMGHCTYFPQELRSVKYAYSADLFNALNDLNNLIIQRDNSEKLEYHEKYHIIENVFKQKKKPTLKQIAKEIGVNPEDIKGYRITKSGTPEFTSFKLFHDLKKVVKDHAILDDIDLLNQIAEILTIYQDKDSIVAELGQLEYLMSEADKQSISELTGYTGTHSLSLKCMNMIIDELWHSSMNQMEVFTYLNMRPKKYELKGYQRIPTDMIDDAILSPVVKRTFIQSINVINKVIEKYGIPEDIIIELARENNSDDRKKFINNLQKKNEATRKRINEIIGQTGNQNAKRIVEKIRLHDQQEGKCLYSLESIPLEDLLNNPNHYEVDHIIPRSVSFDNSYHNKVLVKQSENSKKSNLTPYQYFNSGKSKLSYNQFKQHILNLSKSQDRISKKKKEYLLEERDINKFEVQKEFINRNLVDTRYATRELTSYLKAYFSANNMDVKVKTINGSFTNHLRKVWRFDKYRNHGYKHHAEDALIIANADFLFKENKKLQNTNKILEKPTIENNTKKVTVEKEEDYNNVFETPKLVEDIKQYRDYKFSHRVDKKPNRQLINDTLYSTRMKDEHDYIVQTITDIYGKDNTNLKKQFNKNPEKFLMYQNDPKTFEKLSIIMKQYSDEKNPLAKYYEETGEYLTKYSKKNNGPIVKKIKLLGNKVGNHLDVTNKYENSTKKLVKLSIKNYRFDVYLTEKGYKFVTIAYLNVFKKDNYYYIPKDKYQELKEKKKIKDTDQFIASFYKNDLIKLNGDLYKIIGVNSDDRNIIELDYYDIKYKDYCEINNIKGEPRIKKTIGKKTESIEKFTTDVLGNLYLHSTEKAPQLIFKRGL
Protocol: as §1, §2

[4] = target: T4, Gib11Spa-1 sRGN (synthetic (Staphylococcus Cas9 chimera)); assay: as above
T4 chain: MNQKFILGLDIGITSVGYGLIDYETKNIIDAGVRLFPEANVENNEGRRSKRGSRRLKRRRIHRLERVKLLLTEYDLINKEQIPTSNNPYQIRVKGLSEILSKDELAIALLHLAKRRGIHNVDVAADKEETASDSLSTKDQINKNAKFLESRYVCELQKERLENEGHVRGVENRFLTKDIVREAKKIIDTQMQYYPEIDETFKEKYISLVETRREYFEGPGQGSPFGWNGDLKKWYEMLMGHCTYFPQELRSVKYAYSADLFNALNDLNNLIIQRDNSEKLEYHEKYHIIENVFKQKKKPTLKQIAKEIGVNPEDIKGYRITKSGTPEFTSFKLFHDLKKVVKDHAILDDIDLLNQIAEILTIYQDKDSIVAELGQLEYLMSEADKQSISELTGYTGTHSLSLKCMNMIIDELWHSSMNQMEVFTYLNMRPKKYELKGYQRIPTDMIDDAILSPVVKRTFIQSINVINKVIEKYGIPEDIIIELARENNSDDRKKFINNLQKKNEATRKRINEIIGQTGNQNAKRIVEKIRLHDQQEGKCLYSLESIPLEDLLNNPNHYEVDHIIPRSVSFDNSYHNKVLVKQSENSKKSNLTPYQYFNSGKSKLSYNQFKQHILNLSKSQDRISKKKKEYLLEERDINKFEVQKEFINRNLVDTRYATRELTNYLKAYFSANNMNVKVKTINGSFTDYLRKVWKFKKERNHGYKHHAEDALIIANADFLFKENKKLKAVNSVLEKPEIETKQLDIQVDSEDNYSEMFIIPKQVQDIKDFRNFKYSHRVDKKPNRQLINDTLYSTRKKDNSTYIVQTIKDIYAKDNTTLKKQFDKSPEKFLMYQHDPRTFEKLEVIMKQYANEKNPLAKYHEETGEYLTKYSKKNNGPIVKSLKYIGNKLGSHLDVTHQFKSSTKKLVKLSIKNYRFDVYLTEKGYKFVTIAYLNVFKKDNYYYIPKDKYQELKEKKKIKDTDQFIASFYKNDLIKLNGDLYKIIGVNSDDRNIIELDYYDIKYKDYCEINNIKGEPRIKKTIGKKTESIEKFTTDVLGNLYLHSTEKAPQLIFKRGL
Protocol: as §1, §2

[5] = target: T5, Gib11 sRGN (synthetic (Staphylococcus Cas9 chimera)); assay: FP; cleavage; 5 mM MgCl2, 37 C; PAM GGGG on substrate; mismatch values only in figure
T5 chain: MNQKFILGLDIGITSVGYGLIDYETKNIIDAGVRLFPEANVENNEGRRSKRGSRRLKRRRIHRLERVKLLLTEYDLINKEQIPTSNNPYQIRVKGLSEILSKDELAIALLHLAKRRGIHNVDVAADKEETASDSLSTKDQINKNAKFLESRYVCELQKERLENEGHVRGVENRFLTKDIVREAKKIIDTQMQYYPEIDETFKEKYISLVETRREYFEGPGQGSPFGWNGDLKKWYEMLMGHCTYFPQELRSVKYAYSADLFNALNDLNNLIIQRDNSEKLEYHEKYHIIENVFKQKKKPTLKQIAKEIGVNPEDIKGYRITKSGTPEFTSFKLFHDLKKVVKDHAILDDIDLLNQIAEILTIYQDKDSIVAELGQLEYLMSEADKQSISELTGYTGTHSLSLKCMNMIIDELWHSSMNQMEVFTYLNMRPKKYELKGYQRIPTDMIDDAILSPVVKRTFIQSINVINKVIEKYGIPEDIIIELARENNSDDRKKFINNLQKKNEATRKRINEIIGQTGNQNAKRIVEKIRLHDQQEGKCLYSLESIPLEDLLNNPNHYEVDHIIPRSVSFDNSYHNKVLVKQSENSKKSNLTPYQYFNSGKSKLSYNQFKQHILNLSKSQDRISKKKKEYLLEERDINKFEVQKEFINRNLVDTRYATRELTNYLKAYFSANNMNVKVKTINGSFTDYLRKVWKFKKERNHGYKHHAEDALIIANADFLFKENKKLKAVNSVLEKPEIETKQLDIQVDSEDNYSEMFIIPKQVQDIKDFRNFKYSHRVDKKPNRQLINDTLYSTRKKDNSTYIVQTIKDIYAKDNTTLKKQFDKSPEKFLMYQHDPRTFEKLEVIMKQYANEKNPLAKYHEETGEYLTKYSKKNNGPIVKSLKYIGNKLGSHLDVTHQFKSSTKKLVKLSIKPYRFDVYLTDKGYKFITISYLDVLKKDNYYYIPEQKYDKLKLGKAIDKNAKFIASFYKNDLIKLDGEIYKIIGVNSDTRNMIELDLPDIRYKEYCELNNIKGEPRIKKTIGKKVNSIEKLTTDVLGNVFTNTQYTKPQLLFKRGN
Protocol: as §1, §2

Measured: binding result

B1: sgRNA_Ex6 ; R01-1 on-target duplex (ssRNA ; dsDNA)
RNA: GGUGAACGUGGAUGAAGUUGGUUUUAGUACUCUGGAAACAGAAUCUACUGAAACAAGACAAUAUGUCGUGUUUAUCCCAUCAAUUUAUUGGUGGGAUUUUUUUCUAGCAUAACCCCUUGGGGCCUCUAAACGGGUCUUGAGGGGUUUUUU
DNA 1: GGTGAACGTGGATGAAGTTGTGGGGTAC
DNA 2: GCGGTACCCCACAACTTCATCCACGTTCACCGG
binds: all assays above
